Measured values published in US20160200782A1 (MOERAE MATRIX, published 2016).

T1: SAPK4(h) (human, UniProt O15264 1-365)
T1 sequence (looked up): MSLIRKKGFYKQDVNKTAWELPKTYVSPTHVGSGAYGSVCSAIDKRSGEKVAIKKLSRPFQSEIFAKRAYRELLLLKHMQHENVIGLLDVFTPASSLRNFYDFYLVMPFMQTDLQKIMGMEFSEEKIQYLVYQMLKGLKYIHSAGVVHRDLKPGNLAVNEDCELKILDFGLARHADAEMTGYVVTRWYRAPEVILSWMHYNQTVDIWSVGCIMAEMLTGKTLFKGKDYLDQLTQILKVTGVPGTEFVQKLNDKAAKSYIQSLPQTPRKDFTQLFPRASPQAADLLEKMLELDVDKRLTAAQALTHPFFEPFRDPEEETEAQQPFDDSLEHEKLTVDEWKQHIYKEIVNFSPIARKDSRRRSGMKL

T2: DCAMKL2(h) (human, UniProt Q8N568 372-766, limits assumed)
T2 sequence (looked up): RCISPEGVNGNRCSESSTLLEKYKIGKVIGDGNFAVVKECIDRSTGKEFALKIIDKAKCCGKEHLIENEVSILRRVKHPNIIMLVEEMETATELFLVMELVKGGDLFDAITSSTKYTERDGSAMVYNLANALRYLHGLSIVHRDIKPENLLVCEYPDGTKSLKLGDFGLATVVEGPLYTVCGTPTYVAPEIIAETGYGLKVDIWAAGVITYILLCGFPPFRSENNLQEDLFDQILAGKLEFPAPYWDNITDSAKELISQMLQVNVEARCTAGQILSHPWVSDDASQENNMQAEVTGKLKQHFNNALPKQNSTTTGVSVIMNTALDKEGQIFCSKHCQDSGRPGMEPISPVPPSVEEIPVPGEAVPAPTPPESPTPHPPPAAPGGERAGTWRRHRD

T3: Flt3(h) (human, UniProt P36888 564-993, limits assumed)
T3 sequence (looked up): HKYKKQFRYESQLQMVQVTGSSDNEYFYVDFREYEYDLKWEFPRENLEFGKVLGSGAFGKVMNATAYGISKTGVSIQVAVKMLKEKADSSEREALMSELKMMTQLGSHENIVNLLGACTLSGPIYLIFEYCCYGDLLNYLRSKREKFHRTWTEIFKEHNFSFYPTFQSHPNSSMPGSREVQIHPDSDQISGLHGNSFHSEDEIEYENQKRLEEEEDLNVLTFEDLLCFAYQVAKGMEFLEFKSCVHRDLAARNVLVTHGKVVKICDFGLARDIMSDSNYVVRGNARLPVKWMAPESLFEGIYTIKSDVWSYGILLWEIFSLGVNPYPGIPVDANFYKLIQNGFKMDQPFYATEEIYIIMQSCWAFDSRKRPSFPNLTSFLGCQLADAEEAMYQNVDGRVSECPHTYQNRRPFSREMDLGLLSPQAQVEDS

T4: SGK3(h) (human, UniProt Q96BR1 1-496, limits assumed)
T4 sequence (looked up): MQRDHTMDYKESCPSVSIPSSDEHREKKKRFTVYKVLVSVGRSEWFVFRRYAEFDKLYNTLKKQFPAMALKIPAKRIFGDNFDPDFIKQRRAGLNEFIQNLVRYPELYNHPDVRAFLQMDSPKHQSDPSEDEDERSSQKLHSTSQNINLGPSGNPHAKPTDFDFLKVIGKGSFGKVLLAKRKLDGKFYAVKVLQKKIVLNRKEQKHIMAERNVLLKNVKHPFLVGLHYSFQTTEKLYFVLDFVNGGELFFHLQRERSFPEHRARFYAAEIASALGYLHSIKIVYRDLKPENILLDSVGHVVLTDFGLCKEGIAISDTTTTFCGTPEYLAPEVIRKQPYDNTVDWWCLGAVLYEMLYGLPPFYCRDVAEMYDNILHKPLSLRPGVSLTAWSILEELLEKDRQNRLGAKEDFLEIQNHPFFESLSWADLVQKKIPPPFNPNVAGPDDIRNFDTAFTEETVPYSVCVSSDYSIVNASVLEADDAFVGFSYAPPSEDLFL


Key:
Assay in all cases: cell-based or functional assay
SAPK4(h) = target: T1, SAPK4(h)
EGFR(T790M,L858R)(h) = EGFR(T790M,L858R)(h) (human, UniProt P00533 696-1210, limits assumed)
MSSK1(h) = MSSK1(h) (human, UniProt Q9UPE1 1-567, limits assumed)
DCAMKL2(h) = target: T2, DCAMKL2(h)
cKit(D816H)(h) = cKit(D816H)(h) (human, UniProt P10721 544-976, limits assumed)
PAK6(h) = PAK6(h) (human, UniProt Q9NQU5 1-681, limits assumed)
Rsk3(h) = Rsk3(h) (human, UniProt Q15349 1-733, limits assumed)
ROCK-II(h) = ROCK-II(h) (human, UniProt O75116 11-552)
Hck(h) activated = Hck(h) activated (human, UniProt P08631 251-518, limits assumed)
Flt3(h) = target: T3, Flt3(h)
Yes(h) = Yes(h) (human, UniProt P07947 1-543, limits assumed)
PKCτ(h) = PKCτ(h) (human)
PKCα(h) = PKCα(h) (human, UniProt P17252 1-672)
FGFR1(V561M)(h) = FGFR1(V561M)(h) (human, UniProt P11362 456-765, limits assumed)
SGK3(h) = target: T4, SGK3(h)
CDK3/cyclinE(h) = CDK3/cyclinE(h) (human, UniProt Q00526 1-305; Q00526 1-305)
DAPK2(h) = DAPK2(h) (human, UniProt Q9UIK4 1-370, limits assumed)

| % activity (SAPK4(h)) [%] | % activity (EGFR(T790M,L858R)(h)) [%] | % activity (MSSK1(h)) [%] | % activity (DCAMKL2(h)) [%] | % activity (cKit(D816H)(h)) [%] | % activity (PAK6(h)) [%] | % activity (Rsk3(h)) [%] | % activity (ROCK-II(h)) [%] | % activity (Hck(h) activated) [%] | % activity (Flt3(h)) [%] | % activity (Yes(h)) [%] | % activity (PKCτ(h)) [%] | % activity (PKCα(h)) [%] | % activity (FGFR1(V561M)(h)) [%] | % activity (SGK3(h)) [%] | % activity (CDK3/cyclinE(h)) [%] | % activity (DAPK2(h)) [%] | Binder |
| --- | --- | --- | --- | --- | --- | --- | --- | --- | --- | --- | --- | --- | --- | --- | --- | --- | --- |
| 91 | 78 | 75 | 70 | 143 | 100 | 71 | 77 | 81 | 18 | 14 | 46 | 86 | 74 | 8 | 92 | 16 | KAFAKLAARLYRKALARQLGVAA [MMI-0400] |
| 96 | 85 | 77 | 81 | 126 | 104 | 76 | 74 | 82 | 84 | 67 | 68 | 89 | 74 | 10 | 94 | 32 | FAKLAARLYRKALARQLGVAA [MMI-0300] |
